This is an account of results in patent publication US20160046944, “APTAMER TO IL-17 AND USE THEREOF” (THE UNIVERSITY OF TOKYO, published 2016).

Substitutions are numbered along the chain they refer to.

To fix the notation:
B1: aptamer No. 59 (mixed)
mixed: GGGUAGCCGGAGGAGTCAGTAAUCGGUACCC
modifications: g(M)g(M)g(M)u(M)Ag(S)c(M)c(M)Gg(M)a(F)gg(M)a(M)g(S)Tc(F)a(F)g(M)Ta(M)a(M)u(M)c(M)g(M)g(M)u(F)a(M)c(M)c(M)c(M)
B2: aptamer No. 94 (mixed)
RNA: B1 mixed with T16U, T20U
modifications: g(M)g(M)g(M)u(M)a(M)g(S)c(M)c(M)Gg(M)a(M)gg(M)a(M)g(S)u(F)c(F)a(F)g(S)u(F)aau(M)c(M)g(M)g(M)u(F)a(M)c(M)c(M)c(M)
B3: aptamer No. 85 (mixed)
RNA: B1 mixed with T16U, T20U
modifications: g(M)g(M)g(M)u(M)a(M)g(S)c(M)c(M)Gg(M)a(M)gg(M)a(M)g(S)u(F)c(F)a(F)g(S)u(F)a(M)a(M)u(M)c(M)g(M)g(M)u(F)a(M)c(M)c(M)c(M)
B4: aptamer No. 66 (mixed)
mixed: B1 mixed
modifications: g(M)g(M)g(M)u(M)a(M)g(S)c(M)c(M)Gg(M)a(F)gg(M)a(M)g(S)Tc(F)a(F)g(S)Ta(M)a(M)u(M)c(M)g(M)g(M)u(M)a(M)c(M)c(M)c(M)
B5: aptamer No. 62 (mixed)
mixed: B1 mixed
modifications: g(M)g(M)g(M)u(M)a(M)g(S)c(M)c(M)Gg(M)a(F)gg(M)a(M)gTc(F)a(F)gTa(M)a(M)u(M)c(M)g(M)g(M)u(F)a(M)c(M)c(M)c(M)
B6: aptamer No. 92 (mixed)
RNA: B1 mixed with T16U, T20U
modifications: g(M)g(M)g(M)u(M)a(M)g(S)c(M)c(M)Gg(M)a(M)gg(M)a(M)g(S)u(F)c(F)a(F)g(S)u(F)aa(M)u(M)c(M)g(M)g(M)u(F)a(M)c(M)c(M)c(M)
B7: aptamer No. 73 (mixed)
RNA: B1 mixed with T16U, T20U
modifications: g(M)g(M)g(M)u(M)a(M)g(S)c(M)c(M)Gg(M)a(F)gg(M)a(M)g(S)u(F)c(F)a(F)g(S)u(F)a(M)a(M)u(M)c(M)g(M)g(M)u(M)a(M)c(M)c(M)c(M)
B8: aptamer No. 93 (mixed)
RNA: B1 mixed with T16U, T20U
modifications: g(M)g(M)g(M)u(M)a(M)g(S)c(M)c(M)Gg(M)a(M)gg(M)a(M)g(S)u(F)c(F)a(F)g(S)u(F)a(M)au(M)c(M)g(M)g(M)u(F)a(M)c(M)c(M)c(M)
B9: aptamer No. 68 (mixed)
RNA: B1 mixed with T16U, T20U
modifications: g(M)g(M)g(M)u(M)a(M)g(S)c(M)c(M)Gg(M)a(F)gg(M)a(M)g(S)u(F)c(F)a(F)g(S)u(F)a(M)a(M)u(M)c(M)g(M)g(M)u(F)Ac(M)c(M)c(M)
B10: aptamer No. 86 (mixed)
mixed: B1 mixed with A21G
modifications: g(M)g(M)g(M)u(M)a(M)g(S)c(M)c(M)Gg(M)a(M)gg(M)a(M)g(S)Tc(M)a(F)g(S)Tg(M)a(M)u(M)c(M)g(M)g(M)u(M)a(M)c(M)c(M)c(M)
B11: aptamer No. 77 (mixed)
RNA: B1 mixed with T16U, T20U
modifications: g(M)g(M)g(M)u(M)a(M)gc(M)c(M)gg(M)a(F)gg(M)a(M)gu(F)c(F)a(F)gu(F)a(M)a(M)u(M)c(M)g(M)g(M)u(F)Ac(M)c(M)c(M)
B12: aptamer No. 63 (mixed)
mixed: B1 mixed
modifications: g(M)g(M)g(M)u(M)a(M)g(S)c(M)c(M)Gg(M)a(F)gg(M)a(M)g(S)Tc(F)a(F)g(S)Ta(M)a(M)u(M)c(M)g(M)g(M)u(F)a(M)c(M)c(M)c(M)
B13: aptamer No. 76 (mixed)
RNA: B1 mixed with T16U, T20U
modifications: g(M)g(M)g(M)u(M)a(M)gc(M)c(M)Gg(M)a(F)gg(M)a(M)gu(F)c(F)a(F)gu(F)a(M)a(M)u(M)c(M)g(M)g(M)u(F)Ac(M)c(M)c(M)
B14: aptamer No. 65 (mixed)
mixed: B1 mixed
modifications: g(M)g(M)g(M)u(M)a(M)g(S)c(M)c(M)Gg(M)a(F)gg(M)a(M)gTc(F)a(F)gTa(M)a(M)u(M)c(M)g(M)g(M)u(M)a(M)c(M)c(M)c(M)
B15: aptamer No. 53 (mixed)
mixed: B1 mixed
modifications: g(M)g(M)g(M)u(M)Ag(S)c(M)c(M)Gg(M)a(F)gg(M)a(M)gTc(F)a(F)g(S)Ta(M)a(M)u(M)c(M)g(M)g(M)u(F)a(M)CCC
B16: aptamer No. 70 (mixed)
RNA: B1 mixed with T16U, T20U
modifications: g(M)g(M)g(M)u(M)a(M)g(S)c(M)c(M)Gg(M)a(F)gg(M)a(M)g(S)u(F)c(F)a(F)g(S)u(F)a(M)a(M)u(M)c(M)g(M)g(M)u(F)a(M)c(M)c(M)c(M)
B17: aptamer No. 56 (mixed)
mixed: B1 mixed
modifications: g(M)g(M)g(M)u(M)Ag(S)c(M)c(M)Gg(M)a(F)gg(M)a(M)g(S)Tc(F)a(F)g(S)Ta(M)a(M)u(M)c(M)g(M)g(M)u(F)a(M)CCC
B18: aptamer No. 81 (mixed)
mixed: B1 mixed
modifications: g(M)g(M)g(M)u(M)a(M)g(S)c(M)c(M)Gg(M)a(M)gg(M)a(M)g(S)Tc(M)a(F)g(S)Ta(M)a(M)u(M)c(M)g(M)g(M)u(M)a(M)c(M)c(M)c(M)
B19: aptamer No. 82 (mixed)
mixed: B1 mixed
modifications: g(M)g(M)g(M)u(M)a(M)g(S)c(M)c(M)Gg(M)a(M)gg(M)a(M)g(S)Tc(F)a(F)g(S)Ta(M)a(M)u(M)c(M)g(M)g(M)u(M)a(M)c(M)c(M)c(M)
B20: aptamer No. 72 (mixed)
RNA: B1 mixed with T16U, T20U
modifications: g(M)g(M)g(M)u(M)a(M)g(S)c(M)c(M)Gg(M)a(F)gg(M)a(M)gu(F)c(F)a(F)gu(F)a(M)a(M)u(M)c(M)g(M)g(M)u(M)a(M)c(M)c(M)c(M)
B21: aptamer No. 89 (mixed)
mixed: B1 mixed
modifications: g(M)g(M)g(M)u(M)a(M)g(S)c(M)c(M)Gg(M)a(M)gg(M)a(M)g(S)Tc(M)a(F)g(S)Taa(M)u(M)c(M)g(M)g(M)u(M)a(M)c(M)c(M)c(M)

In this data set the target is T1, IL-17 (IL-17A) (Homo sapiens, UniProt Q16552 Q16552:24-155).
T1 sequence: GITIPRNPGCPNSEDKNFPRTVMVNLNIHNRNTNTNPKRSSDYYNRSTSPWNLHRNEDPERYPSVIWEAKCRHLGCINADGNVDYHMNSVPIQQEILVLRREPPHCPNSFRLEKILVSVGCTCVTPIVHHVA
The experiment in a line: cell_activity; IL-6 release, NIH3T3. The settings on record: chain copies: 2. On the procedure:
First, human IL-17 and the aptamer produced in Example 1-2 were pre-incubated at 37° C. for 30 min, and added to NIH3T3 cell (ATCC, CRL1658) together with mouse TNFα (2 ng/mL). Then, after incubation for 24 hr, the culture supernatant was collected, and the production amount of IL-6 was measured by ELISA method described below. The IL-17 inhibitory action of each aptamer was determined from the production amount of IL-6. For comparison with the aptamer of the present invention, a conventionally-known aptamer (aptamer No. 50) against IL-17 was used.
ELISA method for verifying IL-17 inhibitory action of aptamer: A microtiter plate for ELISA was coated with rat anti-mouse IL-6 antibody (BD Biosciences, 2 μg/mL; 100 μL/well) diluted with PBS, and incubated at 4° C. overnight. The next day, the microtiter plate was washed 3 times with PBS/0.05% Tween 20, and applied blocking with PBS/1% BSA (200 μL/well) at room temperature for 2 hr. Then, the plate was washed 3 times with PBS/0.05% Tween 20. Recombinant mouse IL-6 (BD Biosciences; 100 μL/well) serially diluted with PBS/1% BSA/0.05% Tween 20 or culture supernatants (100 μL/well) were added to the plate. After incubation at room temperature for 2 hr, the plate was washed 3 times with PBS/0.05% Tween 20. Then, 100 μL/well of biotin conjugated rat anti-mouse IL-6 antibody (BD Biosciences) was added to the plate at final dilution of 1/500, and the mixture was reacted at room temperature for 1 hr. After washing 3 times with PBS/0.05% Tween 20, 100 μL/well of alkaline phosphatase conjugated streptavidin was added at final dilution of 1/1000. After 30 min at room temperature, the plate was again washed 4 times with PBS/0.05% Tween 20, and a substrate (1-Step PNPP; Thermo Fisher Scientific Inc; 100 μL/well) was added. After 15 min, aqueous sodium hydroxide solution (2N: 50 μL/well) was added to stop the reaction, and the plate was read on a microtiter reader (Bio-Rad) by using a 405 nm filter.
As for B1, the IC50 (in general, the concentration needed to halve the response being measured) was 1.19 nM.
Regarding B2, it took 0.29 nM to reach half-maximal inhibition (IC50). Against the preceding molecule, the IC50 is about 4.1-fold lower.
With B3 the figure was 0.96 nM.
Under B4 stands 1.21 nM; under B5, 0.69 nM.
B6 showed a concentration for half-maximal inhibition (IC50) of 2.6 nM.
Under B7 stands 3.46 nM; under B8, 0.22 nM; under B9, 2.4 nM.
B10 showed an IC50 of 5.16 nM.
Under B11 stands 4.66 nM.
As to B12, the midpoint of inhibition, the IC50, lay at 0.81 nM.
On to B13, for which the IC50 came to 1.7 nM.
Take B14: half-maximal inhibition (IC50) was put at 0.67 nM.
Under B15 stands 1.67 nM; under B16, 3.28 nM; under B17, 0.52 nM.
Consider B18, for which the IC50 came out at 2.26 nM. This IC50 lies about 4.3-fold higher than the previous one.
In the case of B19, the 50% inhibitory concentration (IC50) stood at 0.48 nM. This IC50 is about 4.7-fold lower than that of the molecule before.
Regarding B20, the IC50 came out at 2.24 nM.
With B21 the figure was 6.21 nM.
